Data taken from paper PMC9604523, “Discovery of New Phenylacetone Monooxygenase Variants for the Development of Substituted Indigoids through Biocatalysis” (International Journal of Molecular Sciences, 2022).
Numbering of substitutions follows the chain as printed. Numbers in names are those of the source.

B1: PAMO (phenylacetone monooxygenase; PAMOWT, PAMOHPCD, PAMOHPED) (Thermobifida fusca YX) (protein)
chain: MAGQTTVDSRRQPPEEVDVLVVGAGFSGLYALYRLRELGRSVHVIETAGDVGGVWYWNRYPGARCDIESIEYCYSFSEEVLQEWNWTERYASQPEILRYINFVADKFDLRSGITFHTTVTAAAFDEATNTWTVDTNHGDRIRARYLIMASGQLSVPQLPNFPGLKDFAGNLYHTGNWPHEPVDFSGQRVGVIGTGSSGIQVSPQIAKQAAELFVFQRTPHFAVPARNAPLDPEFLADLKKRYAEFREESRNTPGGTHRYQGPKSALEVSDEELVETLERYWQEGGPDILAAYRDILRDRDANERVAEFIRNKIRNTVRDPEVAERLVPKGYPFGTKRLILEIDYYEMFNRDNVHLVDTLSAPIETITPRGVRTSEREYELDSLVLATGFDALTGALFKIDIRGVGNVALKEKWAAGPRTYLGLSTAGFPNLFFIAGPGSPSALSNMLVSIEQHVEWVTDHIAYMFKNGLTRSEAVLEKEDEWVEHVNEIADETLYPMTASWYTGANVPGKPRVFMLYVGGFHRYRQICDEVAAKGYEGFVLT
B2: PAMO (phenylacetone monooxygenase; PAMOWT, PAMOHPCD, PAMOHPED) (Thermobifida fusca YX; A442P/L443C/P440F/P94D/Q93N/S441H/S444D) (protein)
chain: B1 chain with Q93N, P94D, P440F, S441H, A442P, L443C, S444D
B3: PAMO (phenylacetone monooxygenase; PAMOWT, PAMOHPCD, PAMOHPED) (Thermobifida fusca YX; A442P/L443E/P440F/P94D/Q93N/S441H/S444D) (protein)
chain: B1 chain with Q93N, P94D, P440F, S441H, A442P, L443E, S444D

What was measured:
purified protein [1] = substrate: NC(=O)C1=CN([C@@H]2O[C@H](COP(=O)(O)OP(=O)(O)OC[C@H]3O[C@@H](n4cnc5c(N)ncnc54)[C@H](OP(=O)(O)O)[C@@H]3O)[C@@H](O)[C@H]2O)C=CC1; assay: purified protein; type: biochemical, Thermobifida fusca; details: 50 mM phosphate pH 8.0, 1 µM enzyme, NADPH varied 5.0-500 µM, varied: cofactor
purified protein [2] = substrate: c1ccc2[nH]ccc2c1; assay: purified protein; type: biochemical, Thermobifida fusca; details: 50 mM phosphate pH 8.0, 1 µM enzyme, indole varied 0.05-1 mM, NADPH fixed at saturating concentration
[3] = indole fixed at saturating concentration (wild type does not use indole; NADPH depletion control)
[4] = indole fixed at saturating concentration

| Protein | Km (purified protein [1]; [3]) [µM] | kcat (purified protein [1]; [3]) [s⁻¹] | kcat/Km (purified protein [1]; [3]) [M⁻¹ s⁻¹] | Km (purified protein [1]; [4]) [µM] | kcat (purified protein [1]; [4]) [s⁻¹] | kcat/Km (purified protein [1]; [4]) [M⁻¹ s⁻¹] | Km (purified protein [2]) [µM] | kcat (purified protein [2]) [s⁻¹] | kcat/Km (purified protein [2]) [M⁻¹ s⁻¹] |
| --- | --- | --- | --- | --- | --- | --- | --- | --- | --- |
| B1 | 0.9 | 4.8 | 5.2e+06 | – | – | – | – | – | – |
| B2 | – | – | – | 7.6 | 6.8 | 900000 | 58.2 | 5.4 | 93000 |
| B3 | – | – | – | 4.4 | 1.9 | 430000 | 109.0 | 1.7 | 16000 |
